In article doi:10.1101/2020.09.09.287375:

Biological target: human serum albumin (human) (UniProt P02768)
Experiment: ITC

dH: -8.9 kcal/mol
stoichiometry N: 0.84
Substance: dalbavancin (peptide)
